Source: the supplement of paper PMC10126150
± gives the standard deviation of the averaged measurements.

Tested on: ATP
Experiment: switch fluorescence ratio, 500 uM ATP over buffer (Cy3 cluster intensity, sum of 5 cycles each) (fold (ratio)); higher = stronger signal-on switching upon ATP binding; sequences stand for … in TCGTCGGCAGCGTCAGATGTGTATAAGAGACAGTTTTTTTTTTTTTTTTTTTTTTTTT…TC
Settings: aptamer strand: ATP DNA aptamer (quencher-CACCTGGGGGAGTATTGCGGAGGAAGG + anchor), 100 nM annealed; ATP concentration: 500 uM
Method in brief: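 For every switch-domain sequence, the fluorescence ratio is the mean of per-cluster values, each being summed target-cycle Cy3 intensity over summed buffer-cycle Cy3 intensity. Clusters outside 100-1000 RFU were excluded. On a modified Illumina MiSeq flow-cell, the Cy3-labelled switching-strand clusters were annealed to 100 nM quencher-labelled ATP aptamer, imaged in selection buffer and then after 15 min with 500 uM ATP at 22 °C. Five such cycles were run, with NaOH stripping and re-annealing between them.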
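Also: ATP exposure 15 min at 22 °C before imaging.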

Sequence	switch fluorescence ratio
CATGAATCTA	0.98017 ± 0.00042
AAAGAAAAAT	1.002 ± 0.005
ATTGCTTTTG	0.99799 ± 0.00028
CGGGGTTCTT	1.02 ± 0.031
GCAGGGGGTG	1.11 ± 0.076
TTTGGTGGCA	0.9992 ± 0.0099
CTAAAGTGGG	0.973 ± 0.015
AAGAAAGGGA	1.03 ± 0.038
GCTGAAAGTG	1 ± 0.057
AACGACGATC	1.11 ± 0.046
ATAGTTGTGG	0.977 ± 0.025
TCTGGCCTTC	1.09 ± 0.1
AATGTAGCAC	1.048 ± 0.0063
GGGCATGAAT	0.965 ± 0.016
AGCGGTGGTT	1.02 ± 0.012
ACGTGGGGGT	1.01 ± 0.011
GGAACGGGGA	1.01 ± 0.017
GAGCTAAGCT	0.981 ± 0.018
ATCCGGTTTG	0.982 ± 0.041
GCCATTGTTG	0.998 ± 0.018
GCCGGGGGTA	1.04 ± 0.079
ACACTTTCG	1.018 ± 0.0011
GACGGATGTG	0.986 ± 0.032

Sequence	switch fluorescence ratio
TCGTTGGGGT	0.987 ± 0.029
TAAACTGCGA	1.07 ± 0.054
GTGAGGGACG	0.999 ± 0.081
TGGACGGGGC	1.034 ± 0.0099
CGTGGCCTGG	0.994 ± 0.024
CGATTTGGAG	0.995 ± 0.012
GCCGGGACCG	1.024 ± 0.01
TAAAGCGTTG	0.9656 ± 0.0077
ATCGGCTCTG	0.991 ± 0.043
GCTAATGGTC	0.977 ± 0.085
AAAGGGGACG	1.01 ± 0.017
TTGTTTAGGT	1 ± 0.03
TGAAGGGTGC	1.02 ± 0.054
AAAAGGGGCG	1 ± 0.019
TTTTAACAGG	1.02 ± 0.08
GGCGCTTGTT	0.975 ± 0.034
GAAACATGCT	1.01 ± 0.052
GACGTTTAAG	0.977 ± 0.029
CAAAAGGGAA	1.02 ± 0.024
GTTGTTAGGG	1 ± 0.0046
TGGGGGAGA	1.04 ± 0.017
GCCGTATGG	0.997 ± 0.012
TGAATGGTTT	0.997 ± 0.031

Sequence	switch fluorescence ratio
TTGATTCGT	0.99 ± 0.02
TGAGTTAGAG	1.02 ± 0.026
ATATTCTTAG	1.01 ± 0.013
CAAAATGCTT	0.99 ± 0.047
AAGTTTATGG	0.9798 ± 0.0057
ATTTCGGGAG	1.01 ± 0.052
AGGTAACGGG	0.987 ± 0.0099
TGCGGGTAAT	0.9985 ± 0.0046
ATTTCGGTCA	0.9919 ± 0.0066
TCTGTGCAGG	1 ± 0.015
TGGGGGAAGA	1.03 ± 0.069
CTAACAGCGA	1.297 ± 0.0027
TCATCGGGGT	0.994 ± 0.023
TATGTAGACG	1.04 ± 0.064
GTTGTAGAGT	1.03 ± 0.032
GTGTATAGTT	1.02 ± 0.056
TTTTCAGAGT	1 ± 0.022
GATTGGACTA	1 ± 0.035
TTTGGCTTAG	0.991 ± 0.029
AATTTAGACG	1.016 ± 0.0083
AAATGGATAG	1.007 ± 0.0029
ACGCTTGCTA	1.02 ± 0.013
ATATTCTTTG	0.997 ± 0.016

Sequence	switch fluorescence ratio
TCTGTGGTGT	1.026 ± 0.0028
CTGGTAATAT	1.15 ± 0.041
TGTTTTTTTT	0.999 ± 0.029
ACGTCTATGT	0.992 ± 0.0074
CCAGTAAAAT	1.01 ± 0.019
TTCGGTGGGG	0.9805 ± 0.0094
GCATGGGTAC	1.05 ± 0.018
AGGGGAGGAT	1.1 ± 0.15
GTTCATACGG	1.06 ± 0.043
TTGTATATGG	1.05 ± 0.022
CCTGAGAACA	1.02 ± 0.031
AGGATTGAAC	0.991 ± 0.018
ATTTACATTA	1.03 ± 0.021
TACGGTGGGC	0.977 ± 0.018
TATTGATATT	1.06 ± 0.14
GGAACTGCTG	1.04 ± 0.029
GAGGGGTCCA	0.974 ± 0.021
GGGAAAAGTT	1 ± 0.04
TGCGAGGTCA	1.03 ± 0.022
ATAGACTTAT	0.9765 ± 0.0093
TAAGTAGCAG	0.997 ± 0.025
TCAAAACGGC	1.07 ± 0.15
TTAAGAAATT	1.01 ± 0.048

Sequence	switch fluorescence ratio
CCAACTTGGA	0.9849 ± 0.003
TTCAATGAAA	1 ± 0.054
TAGCTCGTTT	0.995 ± 0.038
GAAGGTAGCA	1.03 ± 0.041
TTTTCTATGT	1 ± 0.019
ATGTGAGTAT	0.9753 ± 0.0028
TTTCGACGTC	0.997 ± 0.12
GAACTCATGA	0.982 ± 0.012
TGTGGTTTGA	1.01 ± 0.043
AATGCTTAGA	0.985 ± 0.03
GAGGGTACGG	1.037 ± 0.0092
TTAAATCGTT	1.036 ± 0.0076
TCAGTACGAC	1.2 ± 0.021
ATAGGAGTAG	0.993 ± 0.036
GAAGGCAAGG	1.07 ± 0.011
TTTTTGTTAC	1.08 ± 0.027
GAATGCGGAA	1.0339 ± 0.00078
CGGCCTGCG	1.02 ± 0.1
AAAATGGCTT	0.988 ± 0.034
ACAGCCACGG	1.18 ± 0.038
GGGGTAGGTT	1.02 ± 0.053
CACTGATGCC	1.04 ± 0.019
TGGTTCGGTG	0.977 ± 0.016

Sequence	switch fluorescence ratio
CTAGGCTAGG	0.9885 ± 0.0012
ATTTCGATAT	0.979 ± 0.038
TATTCAGGGA	1.02 ± 0.02
GGGGTATGTT	0.99 ± 0.036
ACAAGATTTT	0.9788 ± 0.0046
TTTAGGATAA	1.02 ± 0.013
GATTTAATTG	1.03 ± 0.09
TCGCCCTCCA	1.26 ± 0.12
TCAAACAGTG	1.02 ± 0.039
TCGATCCTGA	0.998 ± 0.032
ACAAGGGGCG	1.05 ± 0.079
TGAGTGGGAG	0.998 ± 0.021
TCTGGGCAGC	1.04 ± 0.05
TGTTTGTTTC	0.973 ± 0.033
TGAGAGCTGA	0.9825 ± 0.0063
AGTGTGCAGG	0.992 ± 0.017
GCGAGGGGTT	0.969 ± 0.035
TCATGAACAT	1.001 ± 0.0082
GGGTTGGATG	0.996 ± 0.025
GGGCGATGGG	1.02 ± 0.084
TTCATGGGGA	0.985 ± 0.023
ATATGTGGCT	0.99 ± 0.054
TTCCTAATGG	1.04 ± 0.046

Sequence	switch fluorescence ratio
TTGTAAGTTT	0.985 ± 0.049
AATCGAGGGG	0.991 ± 0.03
ATTGTTCTGG	1.004 ± 0.0021
AGGGAGGACT	1.022 ± 0.009
GATTAATTAC	1.06 ± 0.018
GGCTGGACGG	1.01 ± 0.011
TATACGAAAT	1.49 ± 0.58
AAGGCAATTA	1.15 ± 0.033
TCGTTTGGGG	1.05 ± 0.061
CTGTAAGGTG	1.83 ± 1
GGGGATAGTG	0.997 ± 0.011
ATATCTCGAG	0.981 ± 0.02
AGCAGAGTGC	1.02 ± 0.055
TATGTGGCAC	1.08 ± 0.061
TAGTTTCCCA	0.971 ± 0.024
GTACCTTGAT	1.05 ± 0.015
ATTTCACTGA	1.03 ± 0.011
GCCGCTGTCG	0.963 ± 0.045
TAGGCGTACG	1.08 ± 0.006
